Data set [1] in a line: Solubility in aqueous solvents (general statement). In kind it is physicochemical. From the text:
For example, 30% organic solvent is needed to keep the conjugate in solution.

Data set [2] has as its target MSA (mouse serum albumin) (Mus musculus, UniProt P07724). The experiment in a line: Biosensor (Biacore) analysis of ABD variants' binding to mouse serum albumin. To be noted: N-terminal His6-tagged proteins injected at 25 nM; MSA immobilized 350 RU; qualitative measure of relative affinities. The method, then: (§1) ABDwt and the twelve ABD variants, all sub-cloned in pAY442 as described above, were expressed in E. coli BL21(DE3) as fusions to an N-terminal His6-tag and purified by IMAC. A colony of each ABD variant was used to inoculate 5 ml TSB medium supplemented with 50 μg/ml kanamycin. The cultures were grown over night at 37° C. The following day, 50 μl of each culture were inoculated separately to 100 ml TSB+YE medium supplemented with 50 μg/ml kanamycin in a 1 liter flask. The cultures were grown at 100 rpm at 37° C. to an OD600 of 0.7-1, after which IPTG was added to a final concentration of 0.5 mM and cells were incubated at room temperature over night at 100 rpm. Cultures were harvested by centrifugation at 8000 g for 5 minutes and pellets were stored in a freezer until protein preparation.
(§2) The His6-tagged proteins were IMAC purified under denatured conditions using Ni-NTA Superflow columns and QIAsoft 4.1, protein/Ni-NTA Superflow 96 denaturing large scale 2 Vac4-24 samples, on a Biorobot 3000 (Qiagen). The buffer was exchanged to PBS using a dialysis cassette (Slide-A-Lyser, 3.5 kDa; Pierce cat. no. 66330) by dialyzing against 5 l PBS for 2 h followed by an additional dialysis over night. […]
A general note: In SPR one partner is held on a chip, and binding of the other changes the refractive index at the surface.

In data set [3] the target is T1, HSA (human serum albumin) (Homo sapiens, UniProt P02768). The experiment in a line: Biosensor (Biacore) analysis of ABD variants' binding to human serum albumin (Example 2). To be noted: N-terminal His6-tagged proteins injected at 25 nM; HSA immobilized 360 RU; qualitative measure of relative affinities. The method, then: as §1, §2
The target of data set [4] is T1, HSA (human serum albumin). The data set can be described thus: Biosensor analysis for binding kinetics to human serum albumin (Example 3). Particulars: His6-tagged; HSA immobilized 450 RU; values estimated. Here is the method:
ABD00003, ABD00053, ABD00239 and ABDwt were expressed in E. coli BL21(DE3) cells as fusions to an N-terminal His6-tag using constructs as described in Example 2, and purified by IMAC. A colony of each ABD variant was used to inoculate 10 ml TSB medium supplemented with 50 μg/ml kanamycin. The cultures were grown over night at 37° C. The following day, 500 μl of each culture were inoculated separately to 500 ml TSB+YE medium supplemented with 50 μg/ml kanamycin in a 5 liter flask. The cultures were grown at 100 rpm and 37° C. to an OD600 of 0.7-1, which was followed by addition of IPTG to a final concentration of 0.5 mM and incubated at room temperature over night. Cultures were harvested by centrifugation at 8000 g for 5 minutes and pellets were stored at −20° C. until protein preparation.
The His6-tagged proteins were IMAC purified under denaturing conditions using His-Gravitrap™ kit (GE Healthcare). The pellets were re-suspended (vortexed) in 20 ml of the denaturation buffer B-7M (100 mM NaH2PO4, 10 mM Tris-Cl, 7 M urea, pH 8) and 8 μl benzonase was added.
Biosensor analysis on a Biacore2000 instrument (Biacore) was performed with HSA (SIGMA, cat. no. A3782-5G) immobilized by amine coupling onto the carboxylated dextran layer on surfaces of a CM-5 chip (research grade; Biacore), according to the manufacturer's recommendations. […] One cell surface on the chip was activated and deactivated and used as reference cell during injections. The purified His6-ABD samples were diluted in HBS-EP (Biacore) to 4, 10, 40, 100 and 400 nM for ABDwt and to 0.2, 0.8, 2, 5 and 20 nM for the selected ABD variants. The samples were injected at a constant flow-rate of 25 μl/min for 10 min, followed by injection of HBS-EP for 3 hours. The surfaces were regenerated with two injections of 20 μl of 5 and 10 mM HCl.

The text below walks through data of patent publication US8937153B2, “Compositions, methods and uses” (Affibody AB, priority 2007, dated 2015).

Sequence of MSA (mouse serum albumin) (P07724 25-608): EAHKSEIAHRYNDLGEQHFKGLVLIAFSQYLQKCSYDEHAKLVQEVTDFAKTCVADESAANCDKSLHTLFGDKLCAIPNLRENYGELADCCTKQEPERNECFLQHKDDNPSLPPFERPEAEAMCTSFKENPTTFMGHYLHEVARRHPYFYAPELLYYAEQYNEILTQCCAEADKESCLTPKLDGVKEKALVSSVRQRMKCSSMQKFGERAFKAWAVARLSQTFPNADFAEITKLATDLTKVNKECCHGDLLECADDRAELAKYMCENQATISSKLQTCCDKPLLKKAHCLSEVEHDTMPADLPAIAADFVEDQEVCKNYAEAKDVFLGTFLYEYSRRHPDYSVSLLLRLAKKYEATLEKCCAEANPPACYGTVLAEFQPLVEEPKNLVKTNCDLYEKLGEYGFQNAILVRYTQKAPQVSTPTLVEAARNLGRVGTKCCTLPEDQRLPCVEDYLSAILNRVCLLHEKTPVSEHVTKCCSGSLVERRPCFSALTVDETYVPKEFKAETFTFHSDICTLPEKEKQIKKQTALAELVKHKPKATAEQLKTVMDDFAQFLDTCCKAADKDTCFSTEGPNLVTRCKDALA

Consider `COc1cccc2c1C(=O)c1c(O)c3c(c(O)c1C2=O)C[C@@](O)(C(=O)CO)CC3O[C@H]1CC(NC(=O)OCc2ccc(NC(=O)OCc3ccc(NC(=O)[C@H](CCCNC(N)=O)NC(=O)[C@@H](NC(=O)CCCCCN4C(=O)C=CC4=O)C(C)C)cc3)cc2)C(O)[C@@H](C)O1` (stereo partly drawn) [free linker, Maleimide-Spacelinker-Doxorubicin], for which, in data set [1], the “solubility in aqueous solvents” value is recorded as “low solubility”.

For orientation: Kd means a measure of binding affinity in units of concentration. ABDwt returned a Kd in data set [2] of 4.9 nM. This compound had a dissociation constant Kd in data set [3] of 1.5 nM. In data set [4], the Kd was 1.2 nM, the “ka to HSA” value was 550000 M/s and the “kd to HSA” value was 0.00065 s⁻¹.
